What was measured:
Conditions in all cases: 20 nM; 72 h
MCF10A [1] = experiment: 5+ nucleoli phenotype percent effect (relative to siNT 0% and siKIF11 100%); higher = more cells with five or more nucleoli
Method: (§1)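 After 72 h, cells were fixed and stained with Hoechst and anti-fibrillarin, and nucleoli per nucleus were counted with CellProfiler. Values are plate-adjusted percent effect for the one-nucleolus and 5+ nucleoli phenotypes, normalised to siNT (0%) and to the positive controls siNOL11 or siKIF11 (100%), as the mean of biological triplicates. Percent viability is the nuclei count relative to siNT.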

MCF10A [2] = experiment: percent viability (nuclei count relative to siNT); higher = more viable cells
Method: as §1

MCF10A [3] = experiment: one-nucleolus phenotype percent effect (relative to siNT 0% and siNOL11 100%); higher = more cells with one nucleolus (ribosome biogenesis inhibition)
Method: as §1

Sequence | 5+ nucleoli phenotype percent effect (MCF10A [1]) [%] | percent viability (MCF10A [2]) [%] | one-nucleolus phenotype percent effect (MCF10A [3]) [%]
UAUAUGGACUUUUCUGAUACAAUG [hsa-miR-8076] | 44.8 | 49.4 | -22.4
UAUCAUGGAGUUGGUAAAGCAC [hsa-miR-2681-3p] | 14.2 | 62.4 | -14.9
UAUCCAGCUUGUUACUAUAUGC [hsa-miR-5586-5p] | 7.77 | 47.2 | -0.119
UAUCGUAUCGUAUUGUAUUGU [hsa-miR-5686] | 39.8 | 93.8 | -22.7
UAUCUGCUGGGCUUUCUGGUGUU [hsa-miR-4686] | -43.3 | 34.5 | 43.6
UAUGCAUUGUAUUUUUAGGUCC [hsa-miR-586] | 54 | 94.9 | -12.9
UAUGGAAAGACUUUGCCACUCU [hsa-miR-3688-3p] | 57.1 | 54 | -10.8
UAUGGAGGUUCUAGACCAUGUU [hsa-miR-4802-5p] | 7.79 | 22.7 | 26.9
UAUGGAGUGGACUUUCAGCUGGC [hsa-miR-6514-5p] | 38.3 | 75 | -0.808
UAUGGCUUUUCAUUCCUAUGUGA [hsa-miR-135b-5p] | -32.7 | 47.9 | 21.8
UAUGGCUUUUUAUUCCUAUGUGA [hsa-miR-135a-5p] | -18.7 | 69 | -3.65
UAUGGGGCUUCUGUAGAGAUUUC [hsa-miR-3675-5p] | -9.76 | 37.2 | 22.6
UAUGGUACUCCUUAAGCUAAC [hsa-miR-5579-5p] | 101 | 86.3 | -26.5
UAUGUAACACGGUCCACUAACC [hsa-miR-411-3p] | 22.1 | 76 | -6.25
UAUGUAACAUGGUCCACUAACU [hsa-miR-379-3p] | 38.4 | 89.1 | -12
UAUGUAAUAUGGUCCACAUCUU [hsa-miR-380-3p] | -13.1 | 90 | 0.458
UAUGUAGUAGUCAAAGGCAUUU [hsa-miR-7852-3p] | -8.45 | 81.4 | -3.81
UAUGUCCCAUCCCUCCAUCA [hsa-miR-6834-3p] | -28.7 | 22.7 | 21.4
UAUGUCUGCUGACCAUCACCUU [hsa-miR-654-3p] | -34.7 | 38 | 28.2
UAUGUGACCUCGGAUGAAUCA [hsa-miR-4501] | -23.6 | 19.8 | 40.8
UAUGUGCCUUUGGACUACAUCG [hsa-miR-455-5p] | -19.3 | 44.7 | -2.17
UAUGUGGGAUGGUAAACCGCUU [hsa-miR-299-3p] | -20.9 | 45.6 | 13.9
UAUUCAGAAAGGUGCCAGUCA [hsa-miR-892c-5p] | 9.47 | 71.8 | -3.71
UAUUCAGGAAGGUGUUACUUAA [hsa-miR-506-5p] | -1.47 | 91 | -9.8
UAUUCAUUUAUCCCCAGCCUACA [hsa-miR-664a-3p] | 26 | 121 | -21
UAUUGCACAUUACUAAGUUGCA [hsa-miR-32-5p] | 9.82 | 123 | -7.37
UAUUGCACUCGUCCCGGCCUCC [hsa-miR-92b-3p] | 2.75 | 76.9 | -7.61
UAUUGCACUUGUCCCGGCCUGU [hsa-miR-92a-3p] | 4.47 | 88.8 | -3.22
UCAAAACUGAGGGGCAUUUUCU [hsa-miR-1323] | 27.8 | 55.9 | -19.4
UCAAAAUCAGGAGUCGGGGCUU [hsa-miR-8063] | 18.2 | 81.3 | -23.1

Source: the supplement of paper PMC10899765
